# In article PMC10824102 (2024):
# Experiments:
# [1] = target: T1, full-length 6x-His-tagged human G3BP1 (human, UniProt Q13283 1-466); assay: FRET; competition with FAM-labeled USP10 FGDF peptide probe
# [2] = target: T1, full-length 6x-His-tagged human G3BP1; assay: SPR
# T1 sequence (Q13283 whole entry): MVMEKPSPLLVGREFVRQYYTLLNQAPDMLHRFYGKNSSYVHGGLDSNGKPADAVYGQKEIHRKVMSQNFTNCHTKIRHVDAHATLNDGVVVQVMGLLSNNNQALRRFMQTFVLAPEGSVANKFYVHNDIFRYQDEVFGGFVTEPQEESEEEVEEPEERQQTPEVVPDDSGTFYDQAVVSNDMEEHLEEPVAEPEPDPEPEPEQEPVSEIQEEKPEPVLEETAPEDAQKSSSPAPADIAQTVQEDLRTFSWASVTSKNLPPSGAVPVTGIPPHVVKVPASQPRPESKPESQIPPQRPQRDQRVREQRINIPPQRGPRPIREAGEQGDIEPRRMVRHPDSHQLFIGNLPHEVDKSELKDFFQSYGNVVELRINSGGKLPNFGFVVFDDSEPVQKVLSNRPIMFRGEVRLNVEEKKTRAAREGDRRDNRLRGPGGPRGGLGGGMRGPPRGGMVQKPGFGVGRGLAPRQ
binder,measurement,setting,value
LTFGDFDEHEVDALASGITFGDFDD [nsP3 25-mer peptide],IC50,[1],3100 nM
same,Kd,[2],200 nM
